How the values were obtained:
[1] = target: ikba_chick NFKBIA (UniProt Q91974)
[2] = target: T1, iaspp_human PPP1R13L (UniProt Q8WUF5)
T1 sequence: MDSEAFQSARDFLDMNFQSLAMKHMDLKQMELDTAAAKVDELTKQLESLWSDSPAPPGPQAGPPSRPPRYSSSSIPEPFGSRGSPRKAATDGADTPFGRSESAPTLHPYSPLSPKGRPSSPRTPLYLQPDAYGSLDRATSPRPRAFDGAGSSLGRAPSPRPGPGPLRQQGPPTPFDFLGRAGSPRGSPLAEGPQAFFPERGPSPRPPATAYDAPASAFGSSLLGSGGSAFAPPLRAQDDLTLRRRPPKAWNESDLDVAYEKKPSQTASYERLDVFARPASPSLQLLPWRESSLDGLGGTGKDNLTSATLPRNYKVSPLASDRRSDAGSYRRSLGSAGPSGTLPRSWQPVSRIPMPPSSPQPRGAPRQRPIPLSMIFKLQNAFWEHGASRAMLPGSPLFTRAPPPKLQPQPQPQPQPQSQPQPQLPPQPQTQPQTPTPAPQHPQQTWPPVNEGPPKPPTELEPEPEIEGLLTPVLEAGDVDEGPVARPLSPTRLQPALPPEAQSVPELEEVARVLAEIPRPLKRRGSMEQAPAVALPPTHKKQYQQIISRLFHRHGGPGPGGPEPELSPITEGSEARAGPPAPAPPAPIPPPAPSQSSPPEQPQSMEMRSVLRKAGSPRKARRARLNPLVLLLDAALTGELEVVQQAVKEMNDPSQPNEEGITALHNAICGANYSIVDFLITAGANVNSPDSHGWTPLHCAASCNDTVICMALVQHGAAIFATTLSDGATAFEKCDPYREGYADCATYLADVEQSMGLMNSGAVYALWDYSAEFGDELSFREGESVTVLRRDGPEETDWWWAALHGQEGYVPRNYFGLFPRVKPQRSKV

[3] = target: T1, iaspp_human PPP1R13L; remark: listed apart in the source
[4] = target: cdn2a_human CDKN2A (UniProt P42771)

ikba_chick NFKBIA, sequence (Q91974 whole entry): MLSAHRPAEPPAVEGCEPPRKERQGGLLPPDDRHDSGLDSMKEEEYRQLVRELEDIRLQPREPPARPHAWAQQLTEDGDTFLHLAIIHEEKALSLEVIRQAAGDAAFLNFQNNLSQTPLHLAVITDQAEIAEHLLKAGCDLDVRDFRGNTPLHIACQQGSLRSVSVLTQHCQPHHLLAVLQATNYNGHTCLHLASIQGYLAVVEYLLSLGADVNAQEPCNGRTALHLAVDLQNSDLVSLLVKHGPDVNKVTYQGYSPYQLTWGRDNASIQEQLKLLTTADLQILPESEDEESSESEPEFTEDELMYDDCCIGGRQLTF

## GTP-binding nuclear protein Ran (Homo sapiens) (from UniProt P62826) V187R;V188R
[1]
  effect of a mutation on the interaction: decreasing interaction strength
[2]
  effect of a mutation on the interaction: decreasing interaction strength

## GTP-binding nuclear protein Ran (Homo sapiens) (from UniProt P62826) V188R
[1]
  effect of a mutation on the interaction: decreasing interaction strength

## GTP-binding nuclear protein Ran (Homo sapiens) (from UniProt P62826) Q69L
[3]
  effect of a mutation on the interaction: disrupting interaction strength
[4]
  effect of a mutation on the interaction: disrupting interaction strength
